Experimental data: patent US6699969B1, “Assays for the detection of microtubule depolymerization inhibitors” (The Regents of the University of California, priority 1998, dated 2004)

What was measured:
[1] = literature values; cited from earlier work
[2] = ATPase assay (modified malachite green method); assay type: biochemical
Experimental: (§1) ATPase activity was measured by a modified malachite green method (Kodama et al. (1986) J. Biochem. 99: 1465-1472). ATPase reactions of 50-100 μL were carried out in a buffer previously used for measuring the ATPase activity of native katanin [20 mM K-HEPES pH 8.0, 25 mM K-Glutamate, 2 mM MgCl2, 10% glycerol (v/v), 0.02% Triton X-100 (w/v), 1 mg/ml BSA] (McNally and Vale (1993) Cell, 75: 419-429), except that soybean trypsin inhibitor (SBTI) was replaced by BSA as a carrier protein because SBTI increased background phosphate contamination. An ATP regenerating system consisting of 0.5-1.0 mM phospho-enol pyruvate and 2U pyruvate kinase was included to minimize the inhibition by ADP observed previously for native katanin (McNally and Vale (1993) Cell, 75; 419-429). Microtubules were prepared from bovine brain tubulin (Hyman el al. (1 990) Meth. Enzymol. 196: 303-319; Williams and Lee (1982) Meth Enzymol. 85B: 376-385). After assembly, microtubules were sedimented (230,000×g; 10 min), resuspended in ATPase buffer lacking BSA, and the polymers were resuspended by repeated passage through a 27 gauge needle. Microtubule concentration was determined by measuring the absorbance at 275 nm in 6M guanidine HCl by using a molecular mass of 110 kDa and an extinction coefficient of 1.03 ml*mg^−1*cm^−1 (Hackney (1988) Proc. Natl. Acad. Sci. USA, 85: 6314-6318). […]

[3] = test system: Taxol-stabilized, rhodamine-labeled microtubules; assay: Microscope-based microtubule severing assay; assay type: biochemical
Experimental: Microscope-based severing assays were performed using previously published procedures (McNally and Vale (1993) Cell, 75: 419-429), except that microtubules were immobilized by first perfusing flow cells with a bacterially expressed kinesin mutant that binds strongly to microtubules but is unable to hydrolyze ATP (K560, G234A mutant; R. Vale and E. Taylor, unpublished results). Assays were performed in 20 mM Hepes (pH 7.5), 2 mM MgCl2, 1 mM ATP with an oxygen scavenger system consisting of glucose oxidase (220 μg/ml), catalase (36 μg/ml), glucose (22.5 mM), and 2-mercaptoethanol (71.5 mM). Images were captured using a cooled, slow-scan CCD (Photometerics) and processed using Adobe Photoshop.

[4] = test system: microtubules; assay: DAPI fluorescence microtubule disassembly (severing) assay; assay type: biochemical, bovine; settings: 2 μM microtubules, FIG. 5C
Experimental: as §1, with “Microtubules were prepared from bovine brain tubulin (Hyman el al. (1 990) Meth. Enzymol. 196: 303-319; Williams and Lee (1982) Meth Enzymol. 85B: 376-385). After assembly, microtubules were sedimented (230,000×g; 10 min), resuspended in ATPase buffer lacking BSA, and the polymers were resuspended by repeated passage through a 27 gauge needle.” left out
DAPI severing assays were performed using conditions where the change in fluorescence intensity was linear with the amount of tubulin polymer added (Heusele et al. (1987) Eur. J. Biochem. 165: 613-620). […] The reaction volume was 80 μL, and. fluorescence intensity was measured by exciting at 370 nm and measuring the emission at 450 nm using a model 8100 fluorimeter. […]

B1: p97: AAA ATPase cited for comparison (Peters et al. 1992) (protein, UniProt P23787 1-805, looked up)
Transitional endoplasmic …: MASGSDTKSDDLSTAILKQKSRPNRLIVDESINEDNSMVSLSQAKMDELQLFRGDTVLLKGKKRREAVCIVLSDDTCSDEKIRMNRVVRNNLRVRLGDVISIQPCPDVKYGKRVHVLPIDDTVEGITGNLFEVYLKPYFLEAYRPIRKGDIFLVRGGMRAVEFKVVETDPSPYCIVAPDTVIHCEGEPIKREDEEESLNEVGYDDIGGCRKQLAQIKEMVELPLRHPALFKAIGVKPPRGILLYGPPGTGKTLIARAVANETGAFFFLINGPEIMSKLAGESESNLRKAFEEAEKNAPAIIFIDELDAIAPKREKTHGEVERRIVSQLLTLMDGLKQRAHVIVMAATNRPNSIDPALRRFGRFDREVDIGIPDSTGRLEILQIHTKNMKLSDDVDLEQVANETHGHVGADLAALCSEAALQAIRKKMDLIDLEDETIDAEVMNSLAVTMDDFRWALSQSNPSALRETVVEVPQVTWEDIGGLEDVKRELQELVQYPVEHPDKFLKFGMTPSKGVLFYGPPGCGKTLLAKAIANECQANFISIKGPELLTMWFGESEANVREIFDKARQAAPCVLFFDELDSIAKARGGNIGDGGGAADRVINQILTEMDGMSIKKNVFIIGATNRPDIIDPAILRPGRLDQLIYIPLPDEKSRMAILKANLRKSPVAKDVDVDFLAKMTNGFSGADLTEICQRACKLAIRESIENEIRRERDRQTNPSAMEVEEDDPVPEIRRDHFEEAMRFARRSVSDNDIRKYEMFAQTLQQSRGFGSFRFPAGGQSGAGPSPGAGGGSGGGHFTEEDDDLYG
ATPase activity of other AAA proteins [1]: 1 ATP/sec

B2: p80: S. purpuratus katanin 80 kDa subunit, 690 a.a. polypeptide with six WD40 repeats (SEQ ID NO: 2) (protein, listed as Strongylocentrotus purpuratus)
chain: MATKRAWKLQELVAHSSNVNCLALGPMSGRVMVTGGEDKKVNLWAVGKQNCIISLSGHTSPVDSVKFNSSEELVVAGSQSGTMKIYDLEPAKIVRTLTGHRNSIRCMDFHPFGEFVASGSTDTNVKLWDVRRKGCIYTYKGHSDQVNMIKFSPDGKWLVTASEDTTIKLWDLTMGKLFQEFKNHTGGVTGIEFHPNEFLLASGSSDRTVQFWDLETFQLVSSTSPGASAVRSISFHPDGSYLFCSSQDMLHAFGWEPIRCFDTFSVFWGKVADTVIASTQLIGASFNATNVSVYVADLSRMSTTGIAQEPQSQPSKTPSGGAEEVPSKPLTASGRKNFVRERPHTTSSKQRQPDVKSEPERQSPTQDEGVKDDDATDIKDPDSYAKIFSPKTRVDHSPERNAQPFPAPLDVPGAQEPEPFKHPPKPAAAAAVAPVSRAPAPSASDWQPAQANPAPNRVPAATKPVPAQEVAPSRKPDPISTIIPSDRNKPANLDMDAFLPPAHAQQAPRVNAPASRKQSDSERIEGLRKGHDSMCQVLSSRHRNLDVVRAIWTAGDAKTSVESVVNMKDQAILVDILNIMLLKKSLWNLDMCVVVLPRLKELLSSKYENYVHTSCACLKLILKNFTSLFNQNIKCPPSGIDITREERYNKCSKCYSYLIATRGYVEEKQHVSGKLGSSFRELHLLLDQLE
modifications: katanin p80 subunit
ATPase activity ([2]; baculovirus-expressed subunit alone): no detectable ATPase activity | microtubule severing ([3]; concentrations 5-fold higher than those used for p60 (0.5 μM)): unable to sever microtubules | change in DAPI fluorescence [4]: did not cause a change in fluorescence

B3: p60: S. purpuratus katanin 60 kDa subunit, 516 a.a. AAA ATPase (SEQ ID NO: 1), baculovirus-expressed with N-terminal His(6) tag (protein, listed as Strongylocentrotus purpuratus)
chain: MSVDEICENTKMGREYALLGNYETSLVYYQGVLQQIQKLLTSVHEPQRKHQWQTIRQELSQEYEHVKNITKTLNGFKSEPAAPEPAPNHGRAAPFSHHQHAAKPAAAEPARDPDVWPPPTPVDHRPSPPYQRAARKDPPRRSEPSKPANRAPGNDRGGRGPSDRRGDARSGGGGRGGARGSDKDKNRGGKSDKDKKAPSGEEGDEKKFDPAGYDKDLVENLERDIVQRNPNVHWADIAGLTEAKRLLEEAVVLPLWMPDYFKGIRRPWKGVLMVGPPGTGKTMLAKAVATECGTTFFNVSSASLTSKYHGESEKLVRLLFEMARFYAPSTIFIDEIDSICSKRGTGSEHEASRRVKSELLIQMDGVSGPSAGEESSKMVMVLAATNFPWDIDEALRRRLEKRIYIPLPEIDGREQLLRINLKEVPLADDIDLKSIAEKMDGYSGADITNVCRDASMMAMRRRIQGLRPEEIRHIPKEELNQPSTPADFLLALQKVSKSVGKEDLVKYMAWMEEFGSV
modifications: N-terminal His6 tag; katanin p60 subunit
microtubule concentration at peak stimulation of ATP turnover [2]: ~2 μM tubulin | time until microtubules were completely disassembled ([3]; 0.1 μM protein): 5 min
